Earlier results in article PMC11815838.

Target: Her2 (ErbB2) ectodomain (UniProt P04626)
Assay: SPR (surface plasmon resonance)
Conditions: not stated (pH 7.4 and pH 5.0 running conditions; buffers given only in ref 2)

Row | Substance | KD (pH 5.0) [nM] | KD (pH 7.4) [nM]
1 | bH1 Fab variant P1 (H-N28H) H-N28H | 16 | 3.5
2 | bH1 Fab variant P2 (H-Y33H) H-Y33H | 1200 | 120
3 | bH1 Fab variant P4 (H-Y56H) H-Y56H | – | 170
4 | bH1 Fab variant P5 (H-R58H) H-R58H | 98 | 310
5 | bH1 Fab variant P6 (H-Y100aH) H-Y100aH | – | 10
6 | bH1 Fab variant P7 (L-R30aH) L-R30aH | 17 | 5.7
7 | bH1 Fab variant P8 (L-S30bH) L-S30bH | 9.9 | 3.4
